# According to the nanobody polyreactivity screen of Harvey et al. (2022):
# Experiment: yeast display, Sf9 membrane polyspecificity reagent, FACS + sequencing; frameworks hold sequencing errors
# How it was run: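 Galactose-induced (36–48 hours) yeast carrying a synthetic nanobody display library were exposed to 10% biotinylated, detergent-solubilized Sf9 membrane reagent at 4 °C for 1 hour. FACS followed streptavidin microbead enrichment, using low and high (top ~1%) gates for expression (anti-HA) and reagent binding (streptavidin). Colony PCR, MiSeq 2 × 250 sequencing and CDR-length filtering followed. Labels for polyreactivity reflect the gate of origin.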
row,Sequence,polyreactivity (PSR sort gate)
1,QVQLVESGGGLVQAGGSLRLSCAASGRTFVPYAMGWYRQAPGKERELVAAINSGTRTYADSVKGRFTISRDNAKNTVYLQMNSLKPEDTAVYYCARRGYYYDYWGQGTQVTVSS,high polyreactivity
2,QVQLVESGGGLVQAGGSLRLSCAASGRTFVPYAMGWYRQAPGKERELVAAITWSGGRTRYADSVKGRFTISRDNAKNTVFLQMNSLKPEDTAVYYCARYYWLYSSSYDYWGQGTQVTVSS,high polyreactivity
3,QVQLVESGGGLVQAGGSLRLSCAASGRTFVPYAMGWYRQAPWKERELVASISSSGGSTYYADSVKGRFTISRDNAKNTVYLQMNSLKPEDTAVYYCATADRWSSSYYRSVRWYHYDYWGQGTQVTVSS,low polyreactivity
4,QVQLVESGGGLVQAGGSLRLSCAASGRTFVPYTMGWYRQAPGKERELVAAISRSGARTYYADSVKGRFTISRDNAKNTVYLQMNSLKPEDTAVYYCVVIARYGYDYWGQGTQVTVSS,high polyreactivity
5,QVQLVESGGGLVQAGGSLRLSCAASGRTFVQYAMGWYRQAPGKERELVAAISDRGGNTYYADSVKGRFTISRDNAKNTVYLQMNSLKPEDTAVYYCAAKIALDNDYWGQGTQVTVSS,high polyreactivity
6,QVQLVESGGGLVQAGGSLRLSCAASGRTFVRNAMGWYRQAPGKERELVAAITRSGGSTYYADSVKGRFTISRDNAKNTVYLQMNSLKPEDTAVYYCSARPPYRVGIVPLGRREYYWGQGTQVTVSS,high polyreactivity
7,QVQLVESGGGLVQAGGSLRLSCAASGRTFVRYAMGWYRQAPGKEREFVAAISWSTGSTYFADSVKGRFTISRDNAKNTVYLQMNSLKPEDTAVYYCAADGYTTYWLLYEYDYWGQGTQVTVSS,low polyreactivity
8,QVQLVESGGGLVQAGGSLRLSCAASGRTFVRYAMGWYRQATGNERELVAAISTSGGNTYYADSVKGRFSISRDNAKNTVYLQMNSLKPEDTAVYYCANDRGPNAKFDDWGQGTQVTVSS,low polyreactivity
9,QVQLVESGGGLVQAGGSLRLSCAASGRTFVSNAMGWYRQAPGKERELVAGINWTDDSTYYADSVKGRFTISRDNAKNTVYLQMNSLKPEDTAVYYCAADSWEFAWPRFDYWGQGTQVTVSS,low polyreactivity
10,QVQLVESGGGLVQAGGSLRLSCAASGRTFVSTAMGWYRQAPGKERELVAGMSQRGGSTYYADSVKGRFTISRDNAKNTVYLHMNSMKPEDTAVYYCNAVSRAYFYGAYGPYTRFNYWGQGTQVTVSS,high polyreactivity
11,QVQLVESGGGLVQAGGSLRLSCAASGRTFVSYAMGWYRQAPGKERELVAAISSSGGSTYYADSVKGRFTISRDNAKNTVYLQMNSLKPEDTAVYYCAADTTTRAYVEMDYWGQGTQVTVSS,low polyreactivity
12,QVQLVESGGGLVQAGGSLRLSCAASGRTFVSYDMGWYRQAPGKERELVATISWTAGSTYYADSVKGRFTISRDNAKNTVYLQMNSLKPEDTAVYYCAADVFYSIYDYWGQGTQVTVSS,low polyreactivity
13,QVQLVESGGGLVQAGGSLRLSCAASGRTFVVNAKGWYRQAPGKEREFVAAISYRGDSTYYSDSVKGRFTISRDNAKNTVYLQMNSLKPEDTAVYYCAARVLGPGRRFYYWVQGTQVTVSS,high polyreactivity
14,QVQLVESGGGLVQAGGSLRLSCAASGRTFVVNDMGWYRQAPGKERELVAAINYNAGSTFYADSVKGRFTISRYNAKKTVYYQMNSLKPEDTAVYYCATDVYGYVEYDYWGQGTQVTVSS,low polyreactivity
15,QVQLVESGGGLVQAGGSLRLSCAASGRTFVYNAMGWYRQAPGKEREFVAAISDGGGDTYYADSVKGRFTISRDNAKNTVYLQMNSLKPEDTAVYYCNVEWQQPGYAFDYWGQGTQVTVSS,low polyreactivity
16,QVQLVESGGGLVQAGGSLRLSCAASGRTFVYNAMGWYRQAPGKERELVAAISFGGGNTYYADSVKGRFTISRDNAKNTVYLQMNSLKPEDTAVYYCAKAYIGYWGASWYYAYDYWGQGTQVTVSS,low polyreactivity
